Results from the supplement of paper PMC11136658.

Tested on: peptide library, one residue held at a place counted from the Y acceptor
Test: relative phosphorylation of the sub-library (ratio to the mean residue at this position); higher = residue favoured
Procedure, shortened: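 Every value reflects phosphorylation relative to the mean randomized residue. The sum of the 18 randomized residues, or 16 in the Ser/Thr-free library, served to normalize intensities at each position, which were then multiplied by that number. Intensities came from phosphorimaging with ImageQuant of biotinylated Tyr-centred peptides captured on streptavidin membranes after 90 min with purified recombinant kinases and 50 μM ATP plus γ-32P-ATP.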

NTRK3, construct: aa510-end, human, sequence (Q16288 510-839, looked up): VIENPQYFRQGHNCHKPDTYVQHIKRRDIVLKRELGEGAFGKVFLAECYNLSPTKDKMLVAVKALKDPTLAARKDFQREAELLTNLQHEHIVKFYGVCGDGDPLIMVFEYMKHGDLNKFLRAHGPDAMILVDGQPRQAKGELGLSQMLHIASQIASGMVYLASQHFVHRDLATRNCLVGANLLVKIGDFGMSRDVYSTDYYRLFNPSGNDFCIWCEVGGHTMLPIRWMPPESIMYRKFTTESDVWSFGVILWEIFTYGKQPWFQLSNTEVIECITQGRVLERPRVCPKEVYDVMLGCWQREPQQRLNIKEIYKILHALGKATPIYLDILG
PDGFRB, construct: aa557-end, human, sequence (P09619 557-1106, looked up): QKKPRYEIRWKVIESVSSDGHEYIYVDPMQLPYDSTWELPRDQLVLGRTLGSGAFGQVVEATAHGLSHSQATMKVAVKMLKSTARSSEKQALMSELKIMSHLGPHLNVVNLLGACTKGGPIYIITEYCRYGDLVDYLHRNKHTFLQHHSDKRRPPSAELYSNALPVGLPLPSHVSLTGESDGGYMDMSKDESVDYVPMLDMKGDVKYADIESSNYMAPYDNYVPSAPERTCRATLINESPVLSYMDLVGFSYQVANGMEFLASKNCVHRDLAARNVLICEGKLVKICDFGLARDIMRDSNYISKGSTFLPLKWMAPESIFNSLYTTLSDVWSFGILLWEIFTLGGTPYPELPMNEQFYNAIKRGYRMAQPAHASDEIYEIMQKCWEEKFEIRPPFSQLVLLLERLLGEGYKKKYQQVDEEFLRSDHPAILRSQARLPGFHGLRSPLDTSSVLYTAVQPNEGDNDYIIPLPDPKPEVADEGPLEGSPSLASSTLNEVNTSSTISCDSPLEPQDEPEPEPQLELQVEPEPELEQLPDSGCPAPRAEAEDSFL

NTRK3, construct: aa510-end, human (from UniProt Q16288)
relative phosphorylation
Settings	at +1	at +2	at +3	at +4	at +5	at -1	at -2	at -3	at -4	at -5
A fixed	1.69	0.892	0.734	0.952	1.02	0.783	1.09	0.974	1.11	1.07
D fixed	0.49	0.785	0.467	0.945	0.698	2.14	1.23	1.2	1.15	1.18
E fixed	0.8	1.08	0.378	1.29	0.752	1.3	1.51	1.47	1.61	1.17
F fixed	1.63	1.19	1.77	1.06	1.2	0.893	0.809	1.08	1.33	0.973
G fixed	0.753	0.459	0.63	1.37	1.12	0.495	1.19	1.08	1.22	1.35
H fixed	1.43	0.887	0.884	1.15	1.21	1.47	1.1	1.26	0.913	0.977
I fixed	1.77	1.04	2.41	0.792	0.939	1.38	0.831	0.755	0.902	0.965
K fixed	0.14	0.714	0.269	0.674	0.867	0.149	0.635	0.559	0.657	0.717
L fixed	0.821	1.09	2.05	0.72	1	1.24	0.776	0.724	0.961	0.986
M fixed	1.53	1.08	1.55	1.11	0.978	0.745	0.654	0.775	0.753	1.02
N fixed	0.322	1.11	0.403	0.855	0.687	2.5	1.17	1.41	0.809	1.22
P fixed	0.269	0.874	0.906	1.63	1.6	1.11	1.12	0.994	1.14	1.18
Q fixed	0.686	1.02	0.485	0.908	0.702	0.756	1.11	0.791	1.01	0.943
R fixed	0.173	1.05	0.375	0.821	0.975	0.196	0.731	0.682	0.641	0.87
S fixed	0.83	1.02	0.77	0.869	0.961	0.701	1.2	1.14	0.748	0.814
T fixed	0.871	0.983	0.741	0.862	0.919	0.784	1	1.04	0.684	0.88
V fixed	1.95	0.976	1.64	0.786	0.807	0.872	0.87	0.738	0.823	0.734
W fixed	1.85	1.76	1.54	1.21	1.55	0.48	0.989	1.32	1.53	0.951
pThr fixed	1.61	0.745	0.374	0.914	0.625	0.999	1	0.982	0.995	0.973
pTyr fixed	2.92	1.81	0.837	1.17	0.96	7.29	1.63	1.86	1.64	1.2

PDGFRB, construct: aa557-end, human (from UniProt P09619)
relative phosphorylation
Settings	at +1	at +2	at +3	at +4	at +5	at -1	at -2	at -3	at -4	at -5
A fixed	1.1	0.618	0.621	0.809	0.959	0.751	0.921	0.883	1.02	0.916
D fixed	0.263	0.542	0.332	0.816	0.825	1.46	0.994	1.26	1.11	1.13
E fixed	0.377	0.815	0.245	0.817	0.757	0.988	1.08	1.26	0.996	1.12
F fixed	1.49	1.41	1.54	0.86	0.93	1.33	0.75	0.807	1.01	0.902
G fixed	0.536	0.452	0.617	1.01	1.11	0.532	1.18	1.03	1.15	1.11
H fixed	1.25	0.986	0.975	1.25	1.04	1.96	1.27	1.08	1.08	1.08
I fixed	1.91	1.04	2.13	0.898	0.769	1.12	0.745	0.707	0.816	0.877
K fixed	0.561	1.02	0.776	1.17	1.15	0.534	1.02	0.997	1.05	1.06
L fixed	0.96	1.12	1.57	0.854	0.906	0.898	0.88	0.752	0.793	0.843
M fixed	0.964	1.2	1.3	0.978	0.852	0.818	0.76	0.857	0.816	0.892
N fixed	0.451	0.899	0.775	0.976	1.12	1.58	1.28	1.31	1.03	1.12
P fixed	0.259	0.732	0.857	0.909	1.08	0.742	1.05	1.08	1.16	0.995
Q fixed	1.05	0.969	0.715	1.14	1	1.11	1.23	1.12	1.14	1.21
R fixed	0.668	1.67	1.09	1.5	1.41	0.56	1.2	1.19	1.14	1.37
S fixed	0.828	0.663	0.733	0.958	1.2	0.696	1.16	1.08	0.87	0.916
T fixed	1.27	0.75	0.711	0.965	0.96	0.872	0.958	0.923	0.759	0.76
V fixed	2.65	0.96	1.58	0.881	0.768	1.05	0.752	0.744	0.776	0.721
W fixed	1.41	2.14	1.42	1.2	1.15	0.997	0.787	0.924	1.28	0.986
pThr fixed	0.867	0.439	0.272	0.505	0.575	0.682	0.836	0.865	0.87	0.845
pTyr fixed	1.15	1.84	0.4	0.809	0.751	1.06	1.08	1.19	1.29	1.01
